Data taken from paper PMC8262862, “A Prevalent Focused Human Antibody Response to the Influenza Virus Hemagglutinin Head Interface” (mBio, 2021).

B1: H2214 Fab, His tag removed (competitor in BLI) (Fab, V domains shown)
VH: EVQLLESGGGLVQPGGSLRLSCAASGFTFNHYAMTWVRQAPGKGLEWVASSSGSGRSTYYTDSVKGRFSVSRDNSKNTLYLQMNSLRAEDTAVYYCAKSSNYYGSGSYSPDDYYHMDVWGQGTTVTVSG
VL: EIVMTQSPDTLSVSPGERATLSCRASESISSNLAWYQQKPGQVPRLLIYGASTRATGVPARFTGSGSGTEFTLTISSLQSEDFAVYYCQQYNNRLPYTFGQGTKLEIK
B2: D2 H1-1/H3-1 Fab, His-tagged (binding studies) (Fab, V domains shown)
VH: QVQLVQSGGGLVRPGGSLRLSCAASGFTFSSAWMTWVRQAPGKGLEWVANIKEDGSEKYYVDSVKGRFSISRDNAKNSLYLQISSLRAEDTAVYYCARRFVERLWGQSKPYDAVDIWGQGTMVTVSG
VL: DIQMTQSPSSLSASVGDRVTITCRASQSISNYLNWYQQKPGKAPKLLIYVASNLQSGVPSRFSGSGSGTDFALTISSLQPEDFASYYCQQSYSPVTTFGGGTKVEIK
notes: not shown: His6, C-terminal, kept
B3: D1 H1-17/H3-14 Fab, His-tagged (binding studies) (Fab, V domains shown)
VH: QVQLQESGPGLVKPSESLSLTCSVSGGSVSSNLHYWSWIRQLPGKGLEWIGYISYTGSTKYNPSLNGRVTLSIDASKNQFSLELSSVTAADTAVYYCARDFFEKLIADDLNAFDIWGQGTMVTVSG
VL: DIRVTQSPSSLSASVGDRVTITCRASQSISRSLNWYQQRPGKAPKFLIYAASNLQSGVPSRFSGGGSGTDFTLTISSLQPEDFATYYCQETYSRTFGQGTKADIK
notes: as for B2

Each binder was assayed against T1, HA head domain of A/Texas/50/2012(H3N2), monomeric (Influenza A virus A/Texas/50/2012(H3N2), strain) (assay: BLI). Settings: both partners purified.
T1 construct: also called monomeric HA heads
B1: binds. B2: binds. B3: binds.
